This series can be described thus: soluble on expression in E. coli; label from the status in PepcDB or PDB records.
Consider “MTVRDKREKMTATREEFADAQQEFAAYAADFAADIETKRDVSSLLDAIDALRAEIEETGDAFDAYNQEFAAEVSHLQTEIGEQREALREMRDIFDAYAETFESDVEAKQDVSDLLAAIEDLRAEMDTTHEAFDAYTNEFVTDVAALRDVSDLLAAIEELQLEFGAVQAEFDDYTDDFDADIERFRNAVAEQRDAVAEYREEFHGVEVQAMLNAIADFQQEIDDFRAEFETTEESFDAFARDFYGAEASDSGDALETEAEAPDAGVPEQPAEESVETENEEAELEVVETETDTEDTDTGSIKEVEEELIIEEEIDTEDTREAENAVEEDEETEADEDAPEGMIQCLVCGEYYQAITEPHLQTHDMTIQEYREEYGEDMPLRPDDKA”, for which the “soluble on expression in E. coli” value is “not soluble”.
On to “DPSVTHVLHQLCDILANNYAFSERIPTLLQHLPNLDYSTVISEEDIAAKLNYELQSLTEDPRLVLKSKTDTLVMPGDSIQAENIPEDEAMLQALVNTVFKVSILPGNIGYLRFDQFADVSVIAKLAPFIVNTVWEPITITENLIIDLRYNVGGSSTAVPLLLSYFLDPETKIHLFTLHNRQQNSTDEVYSHPKVLGKPYGSKKGVYVLTSHQTATAAEEFAYLMQSLSRATIIGEITSGNLMHSKVFPFGDTQLSVTVPIINFIDSNGDYWLGGGVVPDAIVLADEALDKAKEIIAFHPPLA”, for which the “soluble on expression in E. coli” value is listed as “soluble”.
As for “SSNNFNYGAYHSLEAIYHEMDNIAADFPDLARRVKIGHSFENRPMYVLKFSTGKGVRRPAVWLNAGIHSREWISQATAIWTARKIVSDYQRDPAITSILEKMDIFLLPVANPDGYVYTQTQNRLWRKTRSRNPGSSCIGADPNRNWNASFAGKGASDNPCSEVYHGPHANSEVEVKSVVDFIQKHGNFKGFIDLHSYSQLLMYPYGYSVKKAPDAEELDKVARLAAKALASVSGTEYQVGPTCTTVYPASGSSIDWAYDNGIKFAFTFELRDTGTYGFLLPANQIIPTAEETWLGLKTIMEHVRDNLY”, the entry is “soluble”; as for “MGHHHHHHSHGTRMDHRSDLVFLADLRPEEIRYRLQHYFKFLFVREPLERLLSAYRNKFGEIREYQQRYGAEIVRRYRAGAGPSPAGDDVTFPEFLRYLVDEDPERMNEHWMPVYHLCQPCAVHYDFVGSYERLEADANQVLEWVRAPPHVRFPARQAWYRPASPESLHYHLCSAPRALLQDVLPKYILDFSLFAYPLPNVTKEACQQ”, “not soluble”.
With “MEMILEEKDASDWIYRGEGGANLVLAYAGSSPLFVGKVIRIQKARRNDKAIKNANGVVSVLTSDEQHLWRENNELISSPNKEVLEQRYVKNVIIPLLGPKHVDAGVRVSVSKEFLECVDKKVTKQRPLWRVNAANVDTSHDSALILNDHSLFSQGISSGGDCISVEIKPKCGFLPTSRFIGKENMLKTSVSRFKMHQLLKLEYNEISAASAYDPLDLFSGSKESVLEAIKALYSTPQNNFRVFLNGSLILGGSGESTGRTSPEIGYAFEDALKGFIQSEDGHRTECFLQLVSDAVYGSGVLDRLLEIQKLDKLDIEGAIHSYYDLINQPCPICKEGKPLEAELSLHALPLDESLKIVKEYLIAATAKDCSIMISFQSRNAWDSEPSGDYVSLKPTNQTFDYKVHFIDLSLKPLKRMESYYKLDKKIISFYNRKQKAENTAEQIGNSKPSHS”, the “soluble on expression in E. coli” value is listed as “soluble”.
As for “EELEERLVEWIVVQCGPDVGRPDRGRLGFQVWLKNGVILSKLVNSLYPEGSKPVKVPENPPSMVFKQMEQVAQFLKAAEDYGVIKTDMFQTVDLYEGKDMAAVQRTLMALGSLAVTKNDGNYRGDPNWFMK”, the entry is “soluble”; as for “MGSDKIHHHHHHMVETYTLNPNLTKTAAVAEWLQQRIDWHIYLPNQRVPSVRKLAKLLNISSFTVVQAYEQLVATGVLIAKPSSGYYVNTQSKLVQPNDDKRKVFKHPVIDTRWLVQQVFSDIPHNRSPGVGTLPRDWVRNDKMEWAIRQVTQQADSFIYDYGNVQGYLPLRQQLVQHLHTLGMQTHADHVITTAGVSQAVTMVARLLTQAGDTVVVDGPGWYWLSSCLQQQGLNVVSVERDHQGPNIEQMQKLFAAHRPKLYLTNSVLHNPTSYNLHPARAHQVLNLIHEYDAYIFEDDLYAAFVPGGQVLRYASLDQFERVFYATGFSKSMASGWRVGMLVCPDNYIDDVLRIKTLSNSNTPEFGERVCHHLWTHGEYRRQIKKVQQHLYRAHERMRKALPKIRLIYPEHTQAGLFVWVDMGQDTSQLALDAYKEGWLVAPGQLFYPDVSASTHLRLNVSTTSDEFLRWLGDYLDKSCQY”, “not soluble”.

The values above are taken from the DeepSol protein solubility set.
